Results taken from publication PMC8523169, “Competitive binding of MatP and topoisomerase IV to the MukB hinge domain” (eLife, 2021).

How the values were obtained:
[1] = target: T1, full-length ParC, N-terminal 6xHis-tag (E. coli, UniProt P0AFI2 1-752); assay: ITC; 100 µM LH titrated into 10 µM ParC at 25 °C; one-site model; three repeats; conditions: both partners purified
T1 construct: ParC subunit of topoisomerase IV, E. coli, full length; also called His-ParC; ParC2; source: overexpressed, purified as previously published (Nolivos et al., 2016) with an added SEC step; not shown: His6, N-terminal, kept
T1 sequence (looked up): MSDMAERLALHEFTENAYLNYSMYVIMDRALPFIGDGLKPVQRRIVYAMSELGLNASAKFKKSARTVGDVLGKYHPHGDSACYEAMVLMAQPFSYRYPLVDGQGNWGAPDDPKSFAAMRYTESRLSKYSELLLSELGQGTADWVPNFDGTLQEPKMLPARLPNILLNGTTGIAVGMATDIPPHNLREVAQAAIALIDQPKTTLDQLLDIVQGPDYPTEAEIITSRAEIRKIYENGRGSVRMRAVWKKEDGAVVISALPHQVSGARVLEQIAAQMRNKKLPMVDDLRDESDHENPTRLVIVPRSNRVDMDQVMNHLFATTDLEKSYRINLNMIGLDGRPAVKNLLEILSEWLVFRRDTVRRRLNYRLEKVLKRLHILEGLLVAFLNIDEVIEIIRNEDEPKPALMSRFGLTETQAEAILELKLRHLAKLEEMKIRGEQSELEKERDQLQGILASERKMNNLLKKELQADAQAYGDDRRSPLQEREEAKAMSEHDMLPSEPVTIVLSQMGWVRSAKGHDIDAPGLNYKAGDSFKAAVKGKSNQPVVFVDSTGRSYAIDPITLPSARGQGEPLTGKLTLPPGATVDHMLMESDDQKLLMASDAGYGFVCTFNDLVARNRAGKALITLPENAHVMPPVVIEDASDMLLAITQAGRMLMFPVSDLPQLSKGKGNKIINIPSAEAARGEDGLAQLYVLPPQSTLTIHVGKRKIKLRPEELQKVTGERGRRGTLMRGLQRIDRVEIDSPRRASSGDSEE

[2] = target: T1, full-length ParC, N-terminal 6xHis-tag; assay: native MS; proteins buffer exchanged into 200 mM ammonium acetate pH 8.0, alone or mixed in different ratios (two or three components, with or without 50 bp DNA), 10 min on ice; conditions: both partners purified
[3] = target: the molecule itself; assay: as above

Kd [1]: 690 nM
dH [1]: -7.48 kcal/mol
stoichiometry N [1]: 0.84
stoichiometry N [2]: 1 LH dimer per ParC dimer
B1: MukB long hinge (LH; amino acid residues 568–863) (domain or fragment, E. coli, UniProt P22523 568-863, looked up)
chain: SLSDSVSNAREERMALRQEQEQLQSRIQSLMQRAPVWLAAQNSLNQLSEQCGEEFTSSQDVTEYLQQLLEREREAIVERDEVGARKNAVDEEIERLSQPGGSEDQRLNALAERFGGVLLSEIYDDVSLEDAPYFSALYGPSRHAIVVPDLSQVTEHLEGLTDCPEDLYLIEGDPQSFDDSVFSVDELEKAVVVKIADRQWRYSRFPEVPLFGRAARESRIESLHAEREVLSERFATLSFDVQKTQRLHQAFSRFIGSHLAVAFESDPEAEIRQLNSRRVELERALSNHENDNQQQR
notes: MukB, E. coli, residues 568-863: dimeric globular hinge domain and 20% of the coiled-coil region; also called LH (MBP cleaved); LH2; source: NEBExpress cells (pMAL-c5X), purified (amylose, Factor Xa cleavage, HiTrap Q XL, SEC); not shown: MBP, N-terminal, cleaved
stoichiometry N [3]: 2
